{"source": "the DeepSol protein solubility set"}
{"assay": "soluble on expression in E. coli; label from the status in PepcDB or PDB records"}
{"sequence": "MGSDKIHHHHHHMIINNNIKELSIAHLQLIVCLIKHGNSCVVSDELGISQSSISYHLRRLRVIFADEMFIRTGKGLKPTERCIQIGHFAQDLINRVEEELIHANDFVPKQMKRELTLIAADTACGWFSTLFSDMQKTLPRVTLCARPWNLKSMEDLDSGAVDFGIHIIENSKKGIYDMDIAPCYRLCVVRDGHPLISKGEVTLKDLEQYPVLINDLGGWNNDGNSLMQRVLEKHGLKLNIAGRLGYINSIFTALHTSNAITYTSAASIPQSIPGLTLLRGPKEVNEVDCFYRLYISRMRYGSQETNYLIDFIYDSFKHFLTQQYNRIDIAAVINK", "soluble on expression in E. coli": "not soluble"}
{"sequence": "MGSDKIHHHHHHMIKILVDNTAYKKFFAQHGFSALIEINNKRILFDAGQNSITLRENLRLFNEKEGFDYIVLSHGHYDHCDGLKYVIENDLINGKVIAHKDAFLDKYAGNRYIGIDEEIKEYLLKKADLEIIEEPYKIDKDIIVSGYVPREYEYEMEEFQCIKDGKRVKDEVNDDMFLIAKGILITGCSHSGIINVVEYGKKLSEIKGVLGGFHLVGVSDNYLNRIVDYFKSQDFWIMPMHCTGFKALTKLSQLNNFVYGHVGKIIGI", "soluble on expression in E. coli": "not soluble"}
{"sequence": "MGSDKIHHHHHHMIKWRDGKLGLPIKEAVELFPELKNFLDEKGRLDFSNREARILYNKAVAKVLFDLDIEYHPKGLVTPPISRYIFLKTFLRGGEKVLEIGTGHTALMSLIAEKVFKCDVTATELDNEFYSYAKLNIARNNSRIKLLKSSGGIIRGVVPRGERFDVIFSAPPYYEKHSGGVLTEREALGGGKFGEEFSIKLLNEALDYLNAGGKVALFLPHKRDLLNAIKMKGIRLGYEVRDILFKVGTRKRHSLILTV", "soluble on expression in E. coli": "not soluble"}
{"sequence": "MGSDKIHHHHHHMILDTLENLAHYTHLGPRIAKALQHLKETDFTQLPVGNYELEGKDIFVIVNDYETKPREVEPFEVHRKYIDVQYVVSGEEEFGYLPLADQTPSKPYYDKHDYAEFDYESNKARAAFIPFKAGMFALFFPQDMHMPGVSATPQKVRKVVIKVKI", "soluble on expression in E. coli": "not soluble"}
{"sequence": "MGSDKIHHHHHHMILKYAPLNLDQKFSLVYFRMTHDNCWSKITEKHDVMIHTLKLLPNKDRDIIYGLFELKVKGKRTLRDFLRDLNRSGTIRKLGGLSISELKSNIYIIDLYETYSGMIQGKLNDYNSIFDFDLVKYGVEEKYAVIPSENVNELKNELQSMGQLFDFRAKYFPNFYEVLTPYFNFTPIEMQIIIEAYNLGYYDIPRRAGIREIAEYFGLSKSTVQEYIRNAESKTMSNMKLFRMLNELKRL", "soluble on expression in E. coli": "not soluble"}
{"sequence": "MGSDKIHHHHHHMILRKKKSLNAGPINGTGEGVAHSKRWYVALVRMHHEKKVSEHLDKMGIENFVPVQQELHQWSDRRKLVTSVLLPMMVFVHADPKERMEVLSFSTVSRYMVMRGESSPAVIPDEQMARFRFMLDYSEESISMNSSPLARGEKVRVIKGPLTGLVGELVNVDGRSKIAVRLNMLGCACVDMPVGYVEPIMAAV", "soluble on expression in E. coli": "not soluble"}
{"sequence": "MGSDKIHHHHHHMILTVTASPYLLSTNELDGTIEIGEANKIRQVSTVAGGFGTGVAATLFYGGNETFAVFPAPEISHYMRLVTFAGLPHEIIPVAGPIPMHLTMRDAEGNETKFKDSPMPLDVSQLAILRDLVVRRAEDAAWVLLGGNLPSIAPAAWFVDVVRSLRLYHPHVKVAIAATGAALRAVIRQLAATSPDALIVAAEEIEIATGLEPKTLRGPWVEGDLSPTVAAARALIDSGVTEVLVTNKRTESLYVSESESLLASYDSTPGKQGVNWRESFTAGFLAASNDGKSTEDSVINAVAYANAEGSEWDNYIPTPDKLRAEHVVIKSL", "soluble on expression in E. coli": "not soluble"}
{"sequence": "MGSDKIHHHHHHMILVLFYRTTKSHQTHSRHMSVNTTELSIEIIDIVSDRDGARLRDIVEEVDVAKSTAHKHLTTLRDSGFLVKRGEIYQVGLRFLNYGEQARSRWPGYPHIEEAIAALTERTEEECDFVAPDRGRVITIAESYHKWAKFEGTTTDGPSKEYRARTGSYYHMHATASGLAVLSTYSKSRVEDVIERWGLPARTDHTITSREELHAELEQIRERGYAVDDQGYTDGMRSIGKAVHGPEGDVIGALSVSGPTYRVDGMVLEQEVPNALRDVVDELEERLRTTN", "soluble on expression in E. coli": "not soluble"}
{"sequence": "MGSDKIHHHHHHMINIGLTGWGDHYSLYEDLERQTDKLKTYAGHFPVVELDATYYAIQPERNILKWIKETPDTFEFVVKIHQALTLHADYKTFADTRQELFDQFKNMLEPLHTQKKLAMVLVQFPPWFDCNAQNIKYILYVRQQLQAFPMCVEFRHQSWFSDAFKEQTLAFLTEHQIIHAVVDEPQVKDGSVPLVNRITNEIAFVRYHGRNHYGWTKKDMSDQEWRDVRYLYDYNEQELIDLAQKAQILAQKAKKVYVIFNNNSGGHAANNAKTYQRLLNIEYEGLAPQQLKLF", "soluble on expression in E. coli": "not soluble"}
{"sequence": "MGSDKIHHHHHHMINLEKYRIDLNEKKSTKYIQIFNHIKELIINKELVEHEKLPPIRKLSNFLQVNNTTIVKVYELLENEGYVYKIIGSGTFVSSLNSYKSGIDNRKNKIIVQREDLIHFDNGNPSNDMFPIDSFKNAVNMALSKDGSSIFEYDEGLGSEELREKMVEYLSDGNIKTTKENIQIISGAQQGIDIVCKGLISYSDVVFMEEPSYNGAIEVFKSRGAKIISIPMLDDGIDIGILKLKLEKIKPRLIYIMPNFQNPTGISYSTYKKKKLIELAEEHDFYIIEDDFISDFVFESKDNRTIRSYDDKNRVVYIKSFSKILMPGLRIGIVEMPNELLKKVLWAKYSSDISTPGLIQKSMYYYMNNFDWKNYLSHIEKIYTDKYKLAKNLINDKLSGKLKVRKSCGGINFFLELPRGYTSQAFTNFMLNKGVSMLPGTYFFDNLVDDRFFRINIARPSMEELEKGISIISDNIDEFFCEYKNKLDIKSNKLFY", "soluble on expression in E. coli": "not soluble"}
{"sequence": "MGSDKIHHHHHHMIQTYILKIQSLKWAQREMLKTTLITDTLGHVTSTEPTTTAHVPLPDGSSTPVQIWASDNKDSQLVMLWPGFGMGGYYYRPLAAALNKAGFHVAIGELRGQGQSSAKASRKSQWGYHDLASVDFPLQIAAAKKALDLEEGHPMRFLSHSMGGQISCLFAARPEAEKYNLRAIFGVGAGSPFRPTFSPKMGKRLGLGAVLLGGIGGHIVGFWPGKVLGKDLVGYGRQSGTHMREWRRFHKHNSLDDLTAQDINYVEVMKKVSIPITFSRCPDDEDCPQASIDGLASFVPAAQIKMIEIPEALGHNRWAREPESTVKLFLEQAL", "soluble on expression in E. coli": "not soluble"}
{"sequence": "MGSDKIHHHHHHMIRETRQIHVGNVAIGGGAPCSVQSMCNTDTRDVAATLSQVLSLSSAGCEIVRCAVPDMAAAEALGEIKRQSPIPVIADIHFDYRLALRVLEGGIDGLRLNPGNIGERWKVEEVVKAARERLVPIRIGVNAGSLEKELLEKYGHPTAEAMVESALGHVRILEDIGYDQIKISLKASDVMKTVEAYRLLAQKVDYPLHIGITEAGTIFSGTIKSSVGLGILLADGIGDTMRVSLTGDPVDEVRVGFEILKALGLRQRGINFVSCPTCGRCQINLIGVAQEVENRLAAIDTPLTVAVMGCVVNGPGEAREADVGIAGGKGEGLLFRHGEIVRKVPEAEMADALIAEVEQMAKEKTHS", "soluble on expression in E. coli": "not soluble"}
{"sequence": "MGSDKIHHHHHHMIRFHIQADSDIPASTQLYNQIHFAIASRQYPPGHKLPSTRQLAMQTGLHRNTISKVYRLLEEDGVVEAQAGSGIYVRGGNDPRETAKSQRLRKQYPDIDQQIRDHIDTLLQQGCSLAEIRELFLAEVDWRLRCSASVLVTAPLQDLGAAELMYRELSQALGVPVEVVPLEELGAILKQKDSGTVVTSHYFFQDAEAITASLGARTIALDLYDYREELSFLSQQKEGSCIGIVSISPGILRAAEIIIHSLRGEALLIMSCQPNDQTKLEAMLRSASVIICDQSSIDNVKQRVSAIRDDLIRLPRLLCSKSYISEASIALLKRELGLN", "soluble on expression in E. coli": "not soluble"}
{"sequence": "MGSDKIHHHHHHMISASTLNSELINKIAQDFAQATSLAVVVVNIHGDEISELFNFTPFCQLMRQHPEHSGRCRMSDRCGGLEASKKDQLCIYRCHAGLTDFSIPLVIAGHLVGFVLCGQVRLSNDVELVDILNVDDRWQDDPALVQAFRDVPEMDYSRVIASADLLKLIVENCLKKQLNFVVIKDNPSQNDPAQASRAPSPHDGKMKKALRYIDAHLSDELRLEDVAAHVYLSPYYFSKLFKKYQGIGFNAWVNQQRMASAKELLCHSDWSIASIARNLGFSQTSYFCKVFRQTYQVTPQAFRQQINAGSQTESF", "soluble on expression in E. coli": "not soluble"}
